Test results taken from patent US12072338B2, “Pharmaceutical peptides for the treatment of inflammatory diseases” (PROTAGONISTS LTD., priority 2007, dated 2024).
“And” between values parts separate entries of the source, which are not always exact repeats. Equal entries are not always repeated.

How the values were obtained:
Eotaxin 3 = biological target: T1, Eotaxin 3 (Homo sapiens, UniProt Q9Y258); assay: Micro-array analysis of chemokine binding peptides: Eotaxin 3; conditions: limit = start of the upper 75% of that peptide's response range
T1 construct: purchased 300-48
T1 sequence (Q9Y258 24-94): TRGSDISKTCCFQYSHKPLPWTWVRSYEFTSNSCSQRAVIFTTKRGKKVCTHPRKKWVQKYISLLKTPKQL
Description: (§1) (1) Printing: Chemokine (CK) solution (in water) was serially diluted with Print Reagent (GenTel BioSurfaces USA) to final concentrations of 50 μg and 25 μg/ml. BSA/BSA-Biotin control solutions (in water) were diluted with Print Reagent to 100 μg/ml. Amplified stock of M13 phage control (M13KEgIII Cloning Vector, New England Biolabs, Cat.No.E8101S) was stored in Tris Buffered Saline (TBS; pH7.5, 4° C.) and diluted with Print Reagent to the working titre (10^8 pfu/μl). An automated spotting robot (16 pin print tool, 0.4 mm head; BioRobotics, UK) was used to print the CK/BSA control/M13 control, 5 repeats per sample (CK 25 μg/ml and 50 μg/ml; BSA 100 μg/ml; M13 20 μl), on PATH Protein Microarray Slides (GenTel, Prod.No. 2-1005/-1025) at […], and 50-70% relative humidity. Printed micro-array slides were stored at Room Temperature (RT) or 4° C. for at least 24 h before use.
(§2) (2) Blocking: Block Buffer (500 μl/partition; PATHblock, GenTel, Prod.No. 2-1014) was applied to the slide for 1 hour at room temp (RT). After removal of Block Buffer, the slide was air dried for 25 minutes;
(§3) (3) Phage Presented Peptide Binding: Amplified recombinant phage stock was stored in TBS and diluted with Wash Buffer to working titer (10^7 pfu/μl). Recombinant phage suspension (300 μl) was applied per partition and incubated at RT for 1 hour with gentle agitation.
(§4) (4) First Washing: The slides were washed twice with Wash Buffer 300 μl/partition).
(§5) (5) Primary Antibody (Ab) Labeling: The slides were incubated with the Primary Ab (1 mg/ml diluted ×2500 (Wash Reagent), 300 μl; Mouse Anti-M13 monoclonal Ab; Amersham Biosciences, UK; Product Code 27-9420-01) for 45 minutes at RT.
(§6) (6) Second Washing: The slides were washed twice with Wash Buffer (300 μl/partition).
(§7) (7) Secondary Ab Labeling: The slides were incubated with Secondary Ab (1.5 mg/ml diluted ×5000 (Wash Reagent), 300 μl; Cy3-conjugated AffiniPure Goat Anti-Mouse IgG; Jackson ImmunoReserch Labs, USA; Product Code 115-165-062).
(§8) (8) Third Washing: The slides were washed twice with Wash Buffer (300 μl/partition).
(§9) (9) Rinse: the slides were rinsed twice with Rinse Buffer (PATHrinse, GenTel, Prod.No. 2-1018) then dried well.
(§10) (10) Scanning: The peptide-bound, labeled slide was scanned (Laser Intensity 80%, Gain 80%, Resolution 10 μm) with a ScanArray Life Scanner (Packard BioChip Technologies, USA).
(§11) (11) Analysis: Quantitative analysis of micro-array was performed by the SpotReader program of Niles Scientific (USA) and presented as Relative Fluorescence (RF) as a function of CK concentration. Micro-array readout (Cy3 fluorescence) was quantified to determine the relative binding affinities of a CBP for the CKs and by inference, the specificity of the CBP for binding to a CK.

IP-10 = biological target: T2, IP-10 (Homo sapiens, UniProt P02778); assay: Micro-array analysis of chemokine binding peptides: IP-10; conditions: limit = start of the upper 75% of that peptide's response range
T2 construct: purchased 300-12
T2 sequence (P02778 22-98): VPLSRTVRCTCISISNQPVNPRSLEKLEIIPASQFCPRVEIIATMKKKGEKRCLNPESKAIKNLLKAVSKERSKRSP
Description: as §1, §2, §3, §4, §5, §6, §7, §8, §9, §10, §11

TECK = biological target: T3, TECK (Homo sapiens, UniProt O15444); assay: Micro-array analysis of chemokine binding peptides: TECK
T3 construct: purchased 300-45
T3 sequence (O15444 24-150): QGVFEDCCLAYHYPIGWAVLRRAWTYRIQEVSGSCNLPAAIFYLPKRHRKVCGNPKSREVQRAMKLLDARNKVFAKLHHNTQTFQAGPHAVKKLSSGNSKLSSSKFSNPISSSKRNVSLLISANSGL
Description: as §1, §2, §3, §4, §5, §6, §7, §8, §9, §10, §11

Lymphotactin = biological target: T4, Lymphotactin (Homo sapiens, UniProt P47992); assay: Micro-array analysis of chemokine binding peptides: Lymphotactin
T4 construct: purchased 300-20
T4 sequence (P47992 22-114): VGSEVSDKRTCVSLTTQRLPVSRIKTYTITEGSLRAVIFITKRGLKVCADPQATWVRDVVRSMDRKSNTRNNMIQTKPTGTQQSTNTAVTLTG
Description: as §1, §2, §3, §4, §5, §6, §7, §8, §9, §10, §11

IL-8 = assay: Micro-array analysis of chemokine binding peptides: IL-8; conditions: limit = start of the upper 75% of that peptide's response range
IL-8, sequence (P10145 28-99 limits assumed): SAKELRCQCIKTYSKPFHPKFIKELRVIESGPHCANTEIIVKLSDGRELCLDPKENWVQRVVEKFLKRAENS
Description: as §1, §2, §3, §4, §5, §6, §7, §8, §9, §10, §11

Fractalkine = biological target: T5, Fractalkine (Homo sapiens, UniProt P78423); assay: Micro-array analysis of chemokine binding peptides: Fractalkine
T5 construct: purchased 300-31
T5 sequence (P78423 25-100 limits assumed): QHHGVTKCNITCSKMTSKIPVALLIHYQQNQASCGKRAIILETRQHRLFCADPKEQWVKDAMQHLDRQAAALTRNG
Description: as §1, §2, §3, §4, §5, §6, §7, §8, §9, §10, §11

MCP-4 = biological target: T6, MCP-4 (Homo sapiens, UniProt Q99616); assay: Micro-array analysis of chemokine binding peptides: MCP-4; conditions: limit = start of the upper 75% of that peptide's response range
T6 construct: purchased 300-24
T6 sequence (Q99616 17-98): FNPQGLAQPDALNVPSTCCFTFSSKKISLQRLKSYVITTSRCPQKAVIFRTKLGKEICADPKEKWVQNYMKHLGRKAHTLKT
Description: as §1, §2, §3, §4, §5, §6, §7, §8, §9, §10, §11

SDF1-β = biological target: T7, SDF1-β (Homo sapiens, UniProt P48061); assay: Micro-array analysis of chemokine binding peptides: SDF1-β
T7 construct: purchased 300-28b
T7 sequence (P48061 22-93): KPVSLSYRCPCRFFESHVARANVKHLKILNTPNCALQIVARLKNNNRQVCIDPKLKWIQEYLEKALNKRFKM
Description: as §1, §2, §3, §4, §5, §6, §7, §8, §9, §10, §11

MCP-2 = biological target: T8, MCP-2 (Homo sapiens, UniProt P80075); assay: Micro-array analysis of chemokine binding peptides: MCP-2; conditions: limit = start of the upper 75% of that peptide's response range
T8 construct: purchased 300-15
T8 sequence (P80075 24-99): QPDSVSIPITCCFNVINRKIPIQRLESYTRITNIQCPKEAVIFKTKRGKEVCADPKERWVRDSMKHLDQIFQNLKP
Description: as §1, §2, §3, §4, §5, §6, §7, §8, §9, §10, §11

RANTES = biological target: T9, RANTES (Homo sapiens, UniProt P13501); assay: Micro-array analysis of chemokine binding peptides: RANTES; conditions: limit = start of the upper 75% of that peptide's response range
T9 construct: purchased 300-06
T9 sequence (P13501 24-91): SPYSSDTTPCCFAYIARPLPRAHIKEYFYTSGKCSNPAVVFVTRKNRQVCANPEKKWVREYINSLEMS
Description: as §1, §2, §3, §4, §5, §6, §7, §8, §9, §10, §11

Exodus-2 = biological target: T10, Exodus-2 (Homo sapiens, UniProt O00585); assay: Micro-array analysis of chemokine binding peptides: Exodus-2
T10 construct: purchased 300-35
T10 sequence (O00585 24-134): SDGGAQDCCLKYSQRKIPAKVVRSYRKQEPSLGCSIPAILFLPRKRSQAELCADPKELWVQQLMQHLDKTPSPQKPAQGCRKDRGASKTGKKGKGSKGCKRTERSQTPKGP
Description: as §1, §2, §3, §4, §5, §6, §7, §8, §9, §10, §11

BCA-1 = biological target: T11, BCA-1 (Homo sapiens, UniProt O43927); assay: Micro-array analysis of chemokine binding peptides: BCA-1
T11 construct: purchased 300-47
T11 sequence (O43927 23-109): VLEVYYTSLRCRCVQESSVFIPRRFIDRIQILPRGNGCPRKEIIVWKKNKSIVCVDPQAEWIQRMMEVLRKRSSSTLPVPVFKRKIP
Description: as §1, §2, §3, §4, §5, §6, §7, §8, §9, §10, §11

Mig = biological target: T12, Mig (Homo sapiens, UniProt Q07325); assay: Micro-array analysis of chemokine binding peptides: Mig; conditions: limit = start of the upper 75% of that peptide's response range
T12 construct: purchased 300-26
T12 sequence (Q07325 23-125): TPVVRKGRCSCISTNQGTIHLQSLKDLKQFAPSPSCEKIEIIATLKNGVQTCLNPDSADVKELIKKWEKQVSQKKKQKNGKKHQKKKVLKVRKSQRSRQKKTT
Description: as §1, §2, §3, §4, §5, §6, §7, §8, §9, §10, §11

[1] = tested on: Adjuvant-Induced Arthritis (AIA) rats; assay: Adjuvant Induced Arthritis (AIA) rat model, Clinical Score; assay type: in vivo
Description: Peptides were tested in a rat model of AIA for their anti-inflammatory effects.
Disease Induction: AIA was induced in female Lewis rats aged 7-8 weeks by injection of heat-killed Mycobacerioum tuberculosis (Mt strain H37Ra, Difco Laboratories, USA) dispersed in incomplete Freund's adjuvant to a final concentration of 10 mg/ml (100 μl) at the base of the tail on day 0.
Measurement: Clinical Score (CS, 0-4) for each limb based on (a) joint inflammation, (b) redness, (c) deformity.
Efficacy Protocol 1 (5 rats per group). Peptide/control compound was injected intra-peritoneally (IP, 200 μl) on days 7-11 and 14-18.
Rats were sacrificed (CO2 inhalation) on day 43.
Efficacy Protocol 2 (8 rats per group). Group 1: peptide/PBS was injected intra-peritoneally (IP, 200 μl) on days 7-18; Group 2: PBS was injected IP on days 7-18; Group 3: Dexamethasone (Dexa) was injected IP on days 11 (Clinical Score (CS)1) and 13. Rats were sacrificed on day 43.
Combination Efficacy Protocol 1 (8 rats per group). Group 1: peptide injected IP on days 7-18; Group 2: PBS injected IP on days 7-18; Group 3: Dexa injected IP on day 11 (CS 1) and day 13; Group 4: Dexa injected IP on days 11 and 13 then peptide injected on days 14-22; Group 5: Dexa injected IP on days 11 and 13 then PBS injected on days 14-22.
(§12) Combination Efficacy Protocol 2 (8 rats per group). Group 1: peptide injected IP on days 7-18; Group 2: PBS injected IP on days 7-18; Group 3: Dexa injected IP on day 11 (CS 1) and day 13 then PBS on days 14-22; Group 4: PBS injected IP on days 7-10,12,14; Dexa injected on days 11, 13. Peptide injected on days 15-19.
as §12, with “Protocol 3” for “Protocol 2”, “4: peptide” for “4: PBS”
Control Reagents for Adjuvant Induced Arthritis: Anti-Inflammatory Control: Dexamethasone Sodium Phosphate (Dexacort Forte, Teva) was dissolved in Phosphate Buffer Saline (PBS, GIBCO) to a final concentration of 1 mg/ml and injected in 200 μl (200 μg).
Negative Control: Phosphate Buffer Saline (PBS).

[2] = Dexa 200 μg IP on days 11 and 13
[3] = limit = start of the upper 75% of that peptide's response range

| binding to Eotaxin 3 with relatively high affinity (Relative Fluorescence Units) (Eotaxin 3) | binding to IP-10 with relatively high affinity (Relative Fluorescence Units) (IP-10) | binding to TECK, stated in words (TECK) | binding to Lymphotactin, stated in words (Lymphotactin) | binding to IL-8 with relatively high affinity (Relative Fluorescence Units) (IL-8) | binding to Fractalkine, stated in words (Fractalkine) | binding to MCP-4 with relatively high affinity (Relative Fluorescence Units) (MCP-4) | binding to SDF1-β, stated in words (SDF1-β) | binding to MCP-2 with relatively high affinity (Relative Fluorescence Units) (MCP-2) | binding to RANTES with relatively high affinity (Relative Fluorescence Units) (RANTES) | binding to Exodus-2, stated in words (Exodus-2) | binding to BCA-1, stated in words (BCA-1) | binding to Mig with relatively high affinity (Relative Fluorescence Units) (Mig) | binding to TECK with relatively high affinity (Relative Fluorescence Units) (TECK; [3]) | binding to Lymphotactin with relatively high affinity (Relative Fluorescence Units) (Lymphotactin; [3]) | binding to BCA-1 with relatively high affinity (Relative Fluorescence Units) (BCA-1; [3]) | Substance | day by which inflammation approached / was comparable with the disease, untreated group [1, 2] | day from which inflammation increased (onset of inflammation) [1, 2] | day until which inflammation was at the base line ([1]; Dexa IP on days 7-11 and 14-18, afterwards rose almost to the untreated, disease group) |
| --- | --- | --- | --- | --- | --- | --- | --- | --- | --- | --- | --- | --- | --- | --- | --- | --- | --- | --- | --- |
| > 15,000 RFU | > 15,000 RFU | bound | bound | > 15,000 RFU | bound | > 15,000 RFU | bound | > 15,000 RFU | > 15,000 RFU | bound | bound | > 15,000 RFU | – | – | – | DYD [Ph-p33] | – | – | – |
| – | – | – | – | – | – | – | – | – | – | – | – | – | – | – | – | Dexamethasone Sodium Phosphate [reference compound] | 21 days and 28 days | 15 days and 14 days | 24 days |
| > 15,000 RFU | – | – | – | – | – | – | – | – | – | – | – | – | > 15,000 RFU | > 15,000 RFU | > 15,000 RFU | GNAMCK (listed as Homo sapiens) [Ph-p8.1] | – | – | – |
